The data set has as its system Bacillus subtilis DB104 (SP-AmyQ fusion secretion). Put plainly: AmyQ secretion efficiency, weighted average sort bin (1 = best secretion, 10 = worst) (bin number (weighted average, 1-10)); higher = lower secretion efficiency. In short, it runs like this:
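Designed signal peptides were fused to mature AmyQ and expressed from the amyE locus in B. subtilis DB104, and this library was loaded at about 0.3 cells per ~65 nL alginate bead together with fluorescein-starch. After about 13 h of growth at room temperature and nile red staining, occupied beads were split into 10 equally populated bins by green/red fluorescence ratio using large-particle flow cytometry. Amplicons from every bin were Illumina-sequenced. The secretion score is the average bin number weighted by read frequency and normalised to beads per bin, excluding low-abundance sequences.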

Turning to MKKKQVSHAIIISVMLSFVIAVFHTIHASYLTP, the AmyQ secretion efficiency was determined as 6.98. The same measure for MPYLKRVLLLLVTGLFMSLFAVTATASEQTG: 1.36; for MKSKGSIMACLILFSFTITTFINTETISAEED: 4.14.

In the case of MKLSVKIAGVLTVAAAAMTAKMYATAAGD, the AmyQ secretion efficiency came out at 6.46. The same measure for MKRMIVRMTLPLLIVCLAFSSFSASARVASE: 4.86; for MKKMNFSSNSIIVMLATALFLGLTPAGANAADL: 4.32; for MKVLLSALLLLLFARKKKKRASGKKL: 6.15. The same measure for MKLRKVLTGSVLSLGLLVSASPAFATSR: 1.56.

As for MTKKAWFLPLVCVLLISGWLAPAASASKQTT, the AmyQ secretion efficiency was 2.02. MKTKTLFIFSAILTLSIFAPNEAFAQTA showed an AmyQ secretion efficiency of 1.47. With MRKVITCVMAASLTLGSLLPAGYASAKED the figure was 3.26; with MHLIRAKKRKCRAVVLIAGCRFNEDQHQAEGENT, 5.77; with MLKKKWMVGLLAGCLAAGGFSYNAFQTEN, 6.95.

Sequence MKKWMITIAMLILAGIALFVFISPLKWHKT registered an AmyQ secretion efficiency of 5.74. MTKKAWFLPLVCVLLISGWLAPAASASWQTT gave an AmyQ secretion efficiency of 3.5.

On to MKKWLRRAVSLAIAIVLFMYTKGEAKAAGM, for which the AmyQ secretion efficiency came to 2.72. In the case of MGLGKKLSVAVAASFMSLSISLPGVQMAEG, the AmyQ secretion efficiency stood at 3.92. With MYKKFVPFRRRKKRFFVSFEMMENPHALDY the figure was 7.64. The same measure for MRKTIFAFLTGLMMFGTITAASASPR: 4.47; for MKRKLKRKKAISALSLGLLVSAPTASFAAES: 4.1.

As to MNKFLKSNFRFLLAAALGISLLGESNPIKASND, the AmyQ secretion efficiency came to 1.52. With MKKIWIGMLAAAVLLLMVPKVSLAEDD the figure was 4.09; with MSMMSKLSLGVASAALGLALVGGGTWAAFN, 5.67. The same measure for MLKRTSFVSSLFISSAVLLSILRRKRRRAHAQSA: 7.6; for MKRLLVSLRVWMVFLMPDRKTAAAAVY: 6.21; for MKKQIITATTAVVLGSTLFAGAASIQSI: 5.61.

On to MKVLLSALLLLLFAFEPSPSGKKL, for which the AmyQ secretion efficiency is 6.9. The same measure for MRHKIITFILAVVVIIIIGNMIGGGGGSEETSK: 7.2; for MKRIRIPMTLALGAALTIAPLSFASKEEN: 6.64. The same measure for MPYLKRVLLLLVTGLFMSLFAVTATASSQTG: 1.19; for MKRKLRRKRRKSALSLGLLVSAPTASFAAES: 7.05. In turn, MKKCLLFLTTIALILSLSTNAFYKNT showed an AmyQ secretion efficiency of 8.02. With MKKTIMSFVAVAALSTTAFGAHTSAKEI the figure was 2.69; with MKKGIIRQSQSQTGLFFALSTGITGVQAAPA, 7.14.

For the sequence MKKLLAAGIIGLLTVQTDQPSFAAEK, the AmyQ secretion efficiency amounted to 4.21. In turn, MKKWIYVVLVLSIAGIGGFSAFGPVTAVHAASS displayed an AmyQ secretion efficiency of 2.96. With “MNKFLKSNFRFLLAAALGISLLVLFVIFITFASSNFIKASND” the figure was 4.18. With MKRFSTAYLLLGILCSAAVFLIGAPSRALNAEV the figure was 5.97; with MFKKHTISLLIIFLLASAVLAKPIEARKK, 2.26; with MRGKSAVLLSLIMLIAGFLIPFSFQM, 7.72. With MRPVFPLILSAVLFLSCFFGARQTEKSASKR the figure was 6.8. Sequence MFNRLFRVCFLAALIMAFFLGNSVYAQKP came in with an AmyQ secretion efficiency of 2.37. With MKLAKRVSALTPSTTLAITNKAKEL the figure was 7.12; with MKKKLAAGLTASAIVGTTLVVTPCEAATI, 1.75. With MKKGIIRFLLVSFVLFFALSTGITGVQYAPA the figure was 4.56. With MMSSISIFITCLLITLLTMGGMIASPASAAGT the figure was 2.44; with MLKKIALTLCPAIVGSLLFFTAPHSAHVS, 5.59; with MKKKLAAGLTASAIVGTVTPAEAATI, 5.84. The sequence MRKKCKVCLWILVLLLSCLSGKSAYAATS gave an AmyQ secretion efficiency of 2.26. The same measure for MKRFSTAYKQQRQQCSAAVFLIGAPSRALGAEV: 7.51. With MKLSVKIAGVLTVAAAAMTAKMYATNKGN the figure was 6.32. Take MKNMSCKLVVSVTLFFSFLTIGPLSHAQNS: the AmyQ secretion efficiency is 2.11.

The sequence MKKKRKRLAAGLTASAIVGTTLVVTPAEAATI came in with an AmyQ secretion efficiency of 2.55. With MKKGIIRFLLVSFVLFFALSTGITGVQVAPA the figure was 6.17; with MGLGKKLSVAVAASFMSLSISLPGVQAAED, 2.84. With MKRLFMKSMASLVLFAVVFVFAVKGAPAKAETH the figure was 2; with MRKKCSVCKRILVLLLSCLSGKSAYAATS, 7.44; with MTGMLGSMLLITAGILVFFAVVVKDVFAAGL, 4.32. The same measure for MKRKKIMIFLTSFMLLAMTGQTALAKDV: 3.1; for MRSKKLWISLLFALTLIFTMAFSNMSVVTGAQAAGK: 2.11. As for MKKRLIQVMIMFTLLLRKRRSADAADS, the AmyQ secretion efficiency worked out at 6.79. With MRGKSSTRKSLIMLIAGFLISFSFQM the figure was 7.08; with MLCVMMLLFSAIASFPVSAQCKDQ, 6.94; with MKKRLIAPMLLSAASLAFFAMSGSFQAAAY, 7.38.

Take MRSYIKVLTMCFLGLILFVPTTVVALADNS: the AmyQ secretion efficiency was determined as 2.15. With MKKGIIRFLLVSFVLFFALSTGITGVQGAPA the figure was 4.19; with MRNLTKYTTSKGGLCTAAQMVFVTHASAEES, 7.66.

MKRLFMKARRKKKAVVFVFAVKGAPAKAETH came in with an AmyQ secretion efficiency of 8.85.

MRSKKLWISLLFALTLITLLVAFTMAFSNMSAQAAGK showed an AmyQ secretion efficiency of 7.19. With MNKLKRLSMLTVMIASVFIFSSHALGAQY the figure was 1.69; with MNLRKILLSSALSLGMLVSAAPALATSS, 2.26.

Take MRIFKKAVFVIMISFLIATVNVNTAHAKKR: the AmyQ secretion efficiency came out at 2.09. With MTMLLAAGIIGLLTVSIASPSFAAEK the figure was 5.35; with MRKKTKNRLISSVLSTVVISSLLFKRKAGASSK, 7.11.

The sequence MKQGKFSVFLILLLMLTLVVAPKEKAEHASS displayed an AmyQ secretion efficiency of 4.93. With MRPVFPLILSAVLFLSCFSVSTFFGARQTEASASKR the figure was 2.65; with MTGTIITATTAVVLGSTLFAGAASAQSI, 2.31; with MTKRGIQAFAGGIYLTDEDQAAAV, 7.17. Sequence MKRLRRKRRRWMVFLMNWVTPDRKTAAAAVY returned an AmyQ secretion efficiency of 6.85. The same measure for MKWMCSICCAAVLLAGGAAQYEAV: 7.08; for MLKRTSFVSSLFISSAVLLSILLPSGQGHAQSA: 1.31.

Source of the values: the supplement of paper PMC9942255.
